# Data as given in US20130273053.
# How the values were obtained:
# purified plasma factor B = purified plasma factor B (UniProt P00751)
# ST-pro-factor D-His = ST-pro-factor D-His (UniProt P00746)
# ST-pro-factor D-His, sequence (P00746 21-253): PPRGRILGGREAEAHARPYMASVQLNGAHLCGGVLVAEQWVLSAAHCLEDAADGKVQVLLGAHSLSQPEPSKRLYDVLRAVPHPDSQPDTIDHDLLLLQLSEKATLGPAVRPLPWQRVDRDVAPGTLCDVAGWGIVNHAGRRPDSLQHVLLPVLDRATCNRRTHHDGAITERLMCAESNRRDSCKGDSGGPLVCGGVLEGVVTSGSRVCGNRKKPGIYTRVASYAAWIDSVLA
# full length recombinant human MASP-3 (active), sequence (chain): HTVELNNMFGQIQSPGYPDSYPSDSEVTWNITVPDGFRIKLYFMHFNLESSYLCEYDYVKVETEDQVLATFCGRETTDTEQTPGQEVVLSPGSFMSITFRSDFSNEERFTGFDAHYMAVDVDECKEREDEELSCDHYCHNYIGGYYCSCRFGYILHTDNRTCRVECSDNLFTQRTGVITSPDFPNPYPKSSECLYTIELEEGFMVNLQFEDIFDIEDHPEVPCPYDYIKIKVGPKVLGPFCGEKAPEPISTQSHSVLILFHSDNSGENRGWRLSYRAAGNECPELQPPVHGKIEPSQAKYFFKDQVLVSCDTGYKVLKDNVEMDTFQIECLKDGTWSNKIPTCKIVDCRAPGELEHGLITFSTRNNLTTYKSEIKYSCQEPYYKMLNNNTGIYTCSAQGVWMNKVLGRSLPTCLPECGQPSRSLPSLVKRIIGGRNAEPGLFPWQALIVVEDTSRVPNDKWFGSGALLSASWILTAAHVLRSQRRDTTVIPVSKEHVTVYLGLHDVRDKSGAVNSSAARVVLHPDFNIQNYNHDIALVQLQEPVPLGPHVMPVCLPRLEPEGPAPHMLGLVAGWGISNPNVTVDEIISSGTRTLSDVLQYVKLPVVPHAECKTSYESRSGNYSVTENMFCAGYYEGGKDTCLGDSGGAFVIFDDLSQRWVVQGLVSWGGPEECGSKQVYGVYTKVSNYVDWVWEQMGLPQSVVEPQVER
# purified plasma factor B, sequence (P00751 26-764): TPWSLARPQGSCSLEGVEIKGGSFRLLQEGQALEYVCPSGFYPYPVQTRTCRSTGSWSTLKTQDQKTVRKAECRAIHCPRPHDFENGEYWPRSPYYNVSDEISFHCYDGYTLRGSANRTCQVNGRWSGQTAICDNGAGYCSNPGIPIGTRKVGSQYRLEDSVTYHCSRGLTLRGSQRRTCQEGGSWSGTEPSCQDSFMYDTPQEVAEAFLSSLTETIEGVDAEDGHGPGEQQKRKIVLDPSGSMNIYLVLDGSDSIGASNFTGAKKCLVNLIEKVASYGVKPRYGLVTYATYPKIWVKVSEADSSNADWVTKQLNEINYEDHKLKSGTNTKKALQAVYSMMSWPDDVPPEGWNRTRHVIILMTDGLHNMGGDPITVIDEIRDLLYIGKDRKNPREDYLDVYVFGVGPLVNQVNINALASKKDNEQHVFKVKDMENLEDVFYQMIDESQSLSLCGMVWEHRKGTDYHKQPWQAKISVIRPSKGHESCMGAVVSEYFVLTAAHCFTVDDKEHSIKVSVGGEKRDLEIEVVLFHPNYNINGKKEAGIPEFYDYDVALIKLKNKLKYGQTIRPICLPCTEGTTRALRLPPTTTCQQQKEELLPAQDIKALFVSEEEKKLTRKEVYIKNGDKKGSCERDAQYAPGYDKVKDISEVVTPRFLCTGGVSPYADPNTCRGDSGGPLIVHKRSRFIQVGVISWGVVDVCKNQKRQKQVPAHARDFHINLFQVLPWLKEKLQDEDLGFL
substance,measurement,setting,value
full length recombinant human MASP-3 (active),"factor B cleavage, Coomassie-stained SDS-PAGE, with C3(H2O)",purified plasma factor B,"either MASP-3 or pro-factor D are able to mediate factor B cleavage, as long as C3 is present"
same,"cleavage of pro-factor D substrate, Western blot",ST-pro-factor D-His,only full length MASP-3 (lane 2) and the MASP-1 CCP1-CCP2-SP) fragment (lane 5) cleaved ST-pro-factor D-His6
same,"cleavage of pro-factor D to factor D, Western blot, no mAb",ST-pro-factor D-His,MASP-3 cleaves approximately 50% of pro-factor D into factor D
